# Measured values from article PMC12329595, “Engineered bacteriophytochrome heterodimers for research and applications” (The Journal of Biological Chemistry, 2025).
# Where a chain is given by its changes, count along the chain named. Names may count otherwise. Like-named read-outs stand apart in the source and are kept apart here.
# B1: DrBphPRR (full-length DrBphP E148R/E306R) (natural protein)
# chain: MSRDPLPFFPPLYLGGPEITTENCEREPIHIPGSIQPHGALLTADGHSGEVLQMSLNAATFLGQEPTVLRGQTLAALLPEQWPALQAALPPGCPDALQYRATLDWPAAGHLSLTVHRVGELLILEFEPTEAWDSTGPHALRNAMFALRSAPNLRALAEVATQTVRELTGFDRVMLYKFAPDATGEVIAEARREGLHAFLGHRFPASDIPAQARALYTRHLLRLTADTRAAAVPLDPVLNPQTNAPTPLGGAVLRATSPMHMQYLRNMGVGSSLSVSVVVGGQLWGLIACHHQTPYVLPPDLRTTLRYLGRLLSLQVQVKEAADVAAFRQSLREHHARVALAAAHSLSPHDTLSDPALDLLGLMRAGGLILRFEGRWQTLGEVPPAPAVDALLAWLETQPGALVQTDALGQLWPAGADLAPSAAGLLAISVGEGWSECLVWLRPELRLEVAWGGATPDQAKDDLGPRHSFDTYLEEKRGYAEPWHPGEIEEAQDLRDTLTGALGERLSVIRDLNRALTQSNAEWRQYGFVISHHMQEPVRLISQFAELLTRQPRAQDGSPDSPQTERITGFLLRETSRLRSLTQDLHTYTALLSAPPPVRRPTPLGRVVDDVLQDLEPRIADTGASIEVAPELPVIAADAGLLRDLLLHLIGNALTFGGPEPRIAVRTERQGAGWSIAVSDQGAGIAPEYQERIFLLFQRLGSLDEALGNGLGLPLCRKIAELHGGTLTVESAPGEGSTFRCWLPDAGPLPGAADA
# modifications: biliverdin IXα covalently linked to a conserved cysteine (holoprotein)
# notes: Deinococcus radiodurans strain R1 bacteriophytochrome DrBphP, full length; source: E. coli BL21 (DE3), purified (Ni-NTA, SEC)
# B2: DrBphPRE (full-length DrBphP E306R/R310E) (natural protein)
# chain: B1 chain with R148E, R310E
# modifications: biliverdin IXα covalently linked to a conserved cysteine (holoprotein)
# notes: as for B1
# B3: Full-length phytochrome from Deinococcus radiodurans strain R1 (DrBphP), wild type (natural protein)
# chain: B1 chain with R148E, R306E
# modifications: biliverdin IXα covalently linked to a conserved cysteine (holoprotein)
# notes: Deinococcus radiodurans strain R1 bacteriophytochrome DrBphP, full length (PSM and histidine kinase module); also called DrBphPWT; source: E. coli BL21 (DE3), purified (Ni-NTA, SEC)
# B4: DrBphPER (full-length DrBphP R141E/E148R) (natural protein)
# chain: B1 chain with R141E, R306E
# modifications: biliverdin IXα covalently linked to a conserved cysteine (holoprotein)
# notes: as for B1
# B5: DrBphPEE (full-length DrBphP R141E/R310E) (natural protein)
# chain: B1 chain with R141E, R148E, R306E, R310E
# modifications: biliverdin IXα covalently linked to a conserved cysteine (holoprotein)
# notes: as for B1
# Experiments:
# [1] = target: DrPSMRR (DrPSM E148R/E306R) (Deinococcus radiodurans strain R1); assay: ITC; MicroCal PEAQ-ITC, 25 °C, darkness (Pr state), 30 mM Tris/HCl, 150 mM NaCl, pH 8.0; cell 9 to 18 μM, syringe 100 to 280 μM; single-site fit; individual components injected into buffer and vice versa as background
# [2] = target: DrPSMRR (DrPSM E148R/E306R) (Deinococcus radiodurans strain R1); assay: as above; remark: listed apart in the source
# [3] = target: DrPSMRE (DrPSM E306R/R310E) (Deinococcus radiodurans strain R1); assay: as above
# [4] = target: DrPSMRE (DrPSM E306R/R310E) (Deinococcus radiodurans strain R1); assay: as above; remark: listed apart in the source
# [5] = target: the molecule itself; assay: SEC; HPLC, bioZen 1.8 μm SEC-3 column, 30 mM Tris/HCl, 150 mM NaCl, pH 8.0 with 10% acetonitrile, 25 °C; full-length DrBphP and DrF1 variants and mixtures
# [6] = target: B2; assay: as above; conditions: both partners purified
# [7] = target: B1; assay: as above; conditions: both partners purified
molecule,measurement,setting,value
DrPSMEE (DrPSM R141E/R310E) (domain or fragment),Kd,[1],800 nM
same,stoichiometry N,[1],1
same,Kd,[2],12 nM
DrPSMER (DrPSM R141E/E148R) (domain or fragment),Kd,[3],12 nM
same,stoichiometry N,[3],1
same,Kd,[4],800 nM
B1,binding result,[5],binds
B2,binding result,[5],binds
B3,binding result,[5],binds
B4,binding result,[6],binds
same,binding result,[5],binds
B5,binding result,[7],binds
